Data published in patent publication US20160185837A1 (AstraZeneca / MedImmune, published 2016).
Substitutions are numbered along the chain they refer to.

How the values were obtained:
Test in all cases: cell-based or functional assay
mouse GLP-1 receptor = target: T1, mouse GLP-1 receptor (mouse, UniProt O35659 22-463)
T1 sequence (looked up): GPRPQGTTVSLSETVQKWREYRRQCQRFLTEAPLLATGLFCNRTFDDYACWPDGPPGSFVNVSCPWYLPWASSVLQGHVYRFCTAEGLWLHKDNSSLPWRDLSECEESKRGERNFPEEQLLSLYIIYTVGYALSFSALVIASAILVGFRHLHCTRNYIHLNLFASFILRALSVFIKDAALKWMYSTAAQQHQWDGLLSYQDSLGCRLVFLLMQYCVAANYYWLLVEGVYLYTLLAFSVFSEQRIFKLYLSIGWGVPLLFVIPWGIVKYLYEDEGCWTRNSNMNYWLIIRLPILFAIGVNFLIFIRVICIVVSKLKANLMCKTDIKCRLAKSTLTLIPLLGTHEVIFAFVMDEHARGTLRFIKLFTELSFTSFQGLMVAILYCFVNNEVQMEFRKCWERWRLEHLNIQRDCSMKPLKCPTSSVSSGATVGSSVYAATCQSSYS

rat GIP receptor = target: T2, rat GIP receptor (rat, UniProt P43219 19-455)
T2 sequence (looked up): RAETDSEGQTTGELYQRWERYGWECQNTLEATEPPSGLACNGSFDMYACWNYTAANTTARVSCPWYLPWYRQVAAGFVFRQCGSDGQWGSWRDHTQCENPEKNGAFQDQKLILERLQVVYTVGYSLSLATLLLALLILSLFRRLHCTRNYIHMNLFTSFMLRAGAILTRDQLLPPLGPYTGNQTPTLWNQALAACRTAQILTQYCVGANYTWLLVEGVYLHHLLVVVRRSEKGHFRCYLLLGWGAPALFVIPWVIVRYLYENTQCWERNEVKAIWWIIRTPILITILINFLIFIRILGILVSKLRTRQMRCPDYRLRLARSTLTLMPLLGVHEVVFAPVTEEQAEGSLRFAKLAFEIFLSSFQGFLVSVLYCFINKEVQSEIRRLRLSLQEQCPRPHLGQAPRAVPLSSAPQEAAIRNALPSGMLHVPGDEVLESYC

mouse GIP receptor = target: T3, mouse GIP receptor (mouse, UniProt Q0P543 19-460)
T3 sequence (looked up): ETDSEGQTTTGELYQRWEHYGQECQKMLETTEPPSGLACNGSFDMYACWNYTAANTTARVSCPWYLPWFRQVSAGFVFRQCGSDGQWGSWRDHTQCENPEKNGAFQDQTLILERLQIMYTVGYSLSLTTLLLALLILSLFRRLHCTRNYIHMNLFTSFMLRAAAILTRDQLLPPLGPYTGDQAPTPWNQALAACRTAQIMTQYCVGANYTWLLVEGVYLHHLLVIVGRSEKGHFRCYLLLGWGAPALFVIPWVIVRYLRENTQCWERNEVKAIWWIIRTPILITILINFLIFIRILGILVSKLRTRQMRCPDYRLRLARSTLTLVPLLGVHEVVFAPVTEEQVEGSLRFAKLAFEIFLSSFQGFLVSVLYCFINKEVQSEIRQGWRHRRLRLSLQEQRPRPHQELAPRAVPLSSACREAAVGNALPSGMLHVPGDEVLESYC

rat GLP-1 receptor = target: T4, rat GLP-1 receptor (rat, UniProt P32301 22-463)
T4 sequence (looked up): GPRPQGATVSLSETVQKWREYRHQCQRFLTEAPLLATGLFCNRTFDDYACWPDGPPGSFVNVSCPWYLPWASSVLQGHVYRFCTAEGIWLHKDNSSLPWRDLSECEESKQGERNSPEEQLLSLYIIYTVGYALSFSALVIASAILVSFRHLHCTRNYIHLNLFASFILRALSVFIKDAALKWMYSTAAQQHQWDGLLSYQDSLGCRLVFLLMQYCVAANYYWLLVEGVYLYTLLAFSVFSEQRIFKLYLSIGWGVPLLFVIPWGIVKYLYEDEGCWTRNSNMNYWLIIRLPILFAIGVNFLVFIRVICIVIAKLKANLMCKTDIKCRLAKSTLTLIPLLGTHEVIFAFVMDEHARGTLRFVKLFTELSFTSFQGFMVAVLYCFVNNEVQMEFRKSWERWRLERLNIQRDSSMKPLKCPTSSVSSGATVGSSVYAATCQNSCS

human glucagon receptor = human glucagon receptor (human, UniProt P47871 26-477)
human GIP receptor = target: T5, human GIP receptor (human, UniProt P48546 22-466)
T5 sequence (looked up): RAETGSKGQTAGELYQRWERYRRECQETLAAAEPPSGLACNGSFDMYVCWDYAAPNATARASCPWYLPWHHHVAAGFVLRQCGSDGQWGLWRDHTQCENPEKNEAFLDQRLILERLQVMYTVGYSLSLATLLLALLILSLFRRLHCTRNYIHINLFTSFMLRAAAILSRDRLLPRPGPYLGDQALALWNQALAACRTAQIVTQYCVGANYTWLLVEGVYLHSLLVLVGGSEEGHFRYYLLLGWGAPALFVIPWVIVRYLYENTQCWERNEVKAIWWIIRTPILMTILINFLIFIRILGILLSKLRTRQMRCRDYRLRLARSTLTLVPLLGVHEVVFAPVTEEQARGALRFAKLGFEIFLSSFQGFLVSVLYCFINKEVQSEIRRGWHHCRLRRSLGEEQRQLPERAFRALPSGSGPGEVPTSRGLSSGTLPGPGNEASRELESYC

human GLP-1 receptor = human GLP-1 receptor (human, UniProt P43220 24-463)

B1: IP291 (Fc fusion)
chain: YSEGTFTSDYSKLLEEECVRLFIEWLVKGGPGGGAPPPGCGGGGGGGGGGGGGGGGGACPPC
- cAMP EC50 (mouse GLP-1 receptor): 120 nM
- cAMP EC50 (rat GIP receptor): 1.4 nM
- cAMP EC50 (mouse GIP receptor): 680 nM
- cAMP EC50 (rat GLP-1 receptor): 3 nM
- cAMP EC50 (human glucagon receptor): > 10600 nM
- cAMP EC50 (human GIP receptor): 0.12 nM
- cAMP EC50 (human GLP-1 receptor): 12 nM

B2: IP292 (Fc fusion)
chain: B1 chain with C18A, L21C, P38C, C40G
- cAMP EC50 (mouse GLP-1 receptor): 1.2 nM
- cAMP EC50, Batch 2 (mouse GLP-1 receptor): 1.32 nM
- cAMP EC50 (rat GIP receptor): 0.29 nM
- cAMP EC50, Batch 2 (rat GIP receptor): 0.186 nM
- cAMP EC50 (mouse GIP receptor): 66 nM
- cAMP EC50, Batch 2 (mouse GIP receptor): 55.4 nM
- cAMP EC50 (rat GLP-1 receptor): 0.037 nM
- cAMP EC50, Batch 2 (rat GLP-1 receptor): 0.0432 nM
- cAMP EC50 (human glucagon receptor): > 13600 nM
- cAMP EC50, Batch 2 (human glucagon receptor): > 14900 nM
- cAMP EC50 (human GIP receptor): 0.043 nM
- cAMP EC50, Batch 2 (human GIP receptor): 0.046 nM
- cAMP EC50 (human GLP-1 receptor): 0.26 nM
- cAMP EC50, Batch 2 (human GLP-1 receptor): 1.1 nM

B3: IP276 (Fc fusion)
chain: YSEGTFTSDYSKLLEEEAVRLFIEWLVKGPGGGGGGGGGGGGGGGGGATHTCPPC
- cAMP EC50 (mouse GLP-1 receptor): 0.34 nM
- cAMP EC50 (rat GIP receptor): 0.26 nM
- cAMP EC50 (mouse GIP receptor): 510 nM
- cAMP EC50 (rat GLP-1 receptor): 0.028 nM
- cAMP EC50 (human glucagon receptor): 1500 nM
- cAMP EC50 (human GIP receptor): 0.013 nM
- cAMP EC50 (human GLP-1 receptor): 0.16 nM

B4: IP293 (Fc fusion)
chain: B3 chain with L21C, W25C, A48G, T49G, H50G, T51A
- cAMP EC50 (mouse GLP-1 receptor): 13 nM
- cAMP EC50 (rat GIP receptor): 16 nM
- cAMP EC50 (mouse GIP receptor): 7800 nM
- cAMP EC50 (rat GLP-1 receptor): 0.45 nM
- cAMP EC50 (human glucagon receptor): > 13000 nM
- cAMP EC50 (human GIP receptor): 1.2 nM
- cAMP EC50 (human GLP-1 receptor): 1.6 nM

B5: IP294 (Fc fusion)
chain: B3 chain with E24C, K28C, A48G, T49G, H50G, T51A
- cAMP EC50 (mouse GLP-1 receptor): 350 nM
- cAMP EC50 (rat GIP receptor): 100 nM
- cAMP EC50 (mouse GIP receptor): > 6800 nM
- cAMP EC50 (rat GLP-1 receptor): 7.1 nM
- cAMP EC50 (human glucagon receptor): > 6810 nM
- cAMP EC50 (human GIP receptor): 1.3 nM
- cAMP EC50 (human GLP-1 receptor): 27 nM

B6: IP272 (Fc fusion)
chain: YSEGTFTSDYSKLLEEEAVRLFIEWLLAQKAPPGGSGSTASSGSGSATGGGGAATHTCPPC
- cAMP EC50 (mouse GLP-1 receptor): 2.3 nM
- cAMP EC50 (rat GIP receptor): 0.048 nM
- cAMP EC50 (mouse GIP receptor): 11 nM
- cAMP EC50 (rat GLP-1 receptor): 0.085 nM
- cAMP EC50 (human glucagon receptor): 1700 nM
- cAMP EC50 (human GIP receptor): 0.011 nM
- cAMP EC50 (human GLP-1 receptor): 0.53 nM
